The results in this text go back to PMC4244113.

What all share (experiment): SPR
The target of test [1] is Turnip mosaic virus (TuMV) viral protein-genome linked (VPg), His-tagged (turnip mosaic virus).
The target is the same in test [2]. This is another data set of the same source.
Test [3] has the same target. This is another data set of the same source.

Where two headings read alike, the source gives them in different places.

Turnip mosaic virus (TuMV) viral protein-genome linked (VPg), His-tagged (turnip mosaic virus), sequence (P89509 1925-2116 limits assumed): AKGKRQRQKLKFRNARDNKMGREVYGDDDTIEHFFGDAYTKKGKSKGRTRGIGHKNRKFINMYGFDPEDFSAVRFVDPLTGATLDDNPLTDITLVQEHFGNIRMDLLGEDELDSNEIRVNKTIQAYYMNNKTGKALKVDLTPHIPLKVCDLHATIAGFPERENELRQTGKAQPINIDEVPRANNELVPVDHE

For “N-terminal 33 residues-deleted human eIF4E (from UniProt P06730 34-217) (domain or fragment)”, in test [1], the Kd was 3290 nM, the koff is 0.00447 s⁻¹ and the kon worked out at 1360 M⁻¹ s⁻¹.

B1: Arabidopsis thaliana eIFiso4E (natural protein)
chain: MATDDVNEPLPAAAELPATEAEKQPHKLERKWSFWFDNQSKKGAAWGASLRKAYTFDTVEDFWGLHETIFQTSKLTANAEIHLFKAGVEPKWEDPECANGGKWTWVVTANRKEALDKGWLETLMALIGEQFDEADEICGVVASVRPQSKQDKLSLWTRTKSNEAVLMGIGKKWKEILDVTDKITFNNHDDSRRSRFTV
In test [2], B1 had a Kd of 1410 nM, a koff of 0.00459 s⁻¹ and a kon of 3250 M⁻¹ s⁻¹. In test [3], this molecule came in with a Kd of 208 nM, a koff of 0.00432 s⁻¹ and a kon of 20800 M⁻¹ s⁻¹.
